The record followed here is the supplement of paper PMC9170038.

In this series the test system is MS2 coat protein. The experiment in a line: apparent KD of MS2 coat protein; designed switch direction (-1 OFF switch, 1 ON switch): -1; higher = weaker reporter binding. In short, it runs like this: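 The reported apparent KD is a per-design median over clusters, from curve fits of normalised cluster fluorescence. Protein titrations used SNAP-549-labelled MS2 coat protein, doubled from 0.7 or 1.5 nM to 3 µM, in Tris-HCl pH 7.5 buffer with KCl, MgCl2, BSA, DTT, tRNA and Tween-20, with no input, 200 uM small-molecule ligand, or an oligonucleotide input. The RNA switches were transcribed on Illumina chips by stalled E. coli RNA polymerase.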

Where [1] appears, read: input ligand: microRNA oligo, concentration not stated.
Setting [2] is: Eterna round: R95, input ligand: FMN 200 uM.
The mark [3] stands for this setting: Eterna round: R95, input ligand: microRNA oligo, concentration not stated.
[4] abbreviates: Eterna round: R95, input ligand: none.

For “GUGUGCACGCUGCGAUCCUACAUGAGGAUCACCCAUGUGGUCUGGUGGCGUGGGUCACCGGACUUGGCUCGUCUUGA [salish99_S_TOV1_R5_069] (Eterna round: R97, puzzle: Sensor, turn-off variant 1)”, the “apparent KD of MS2 coat protein” value runs as follows: (input ligand: FMN 200 uM) 121 nM; (input ligand: none) 118 nM.
For “GUUAUGUCAGGAUAUGCUAAUGAUGAGUGAUCAGACAUGAUGUAGAAGGGACAUGAGGAUCACCCAUGUAAUAU [EX4 #8] (Eterna round: R97, puzzle: Exclusion 4)”, the “apparent KD of MS2 coat protein” value reads like this: (input ligand: FMN 200 uM) 114 nM; (input ligand: none) 122 nM.
Regarding “UUCGUGCAGCUUUGCUGUACGCGUACAUGAGGAUCACCCAUGUAGGAUAUGGUAGGCUUUGCUUACUAGAAGGAUAUUGUGAUC [JL EXNG3 1.32] (Eterna round: R96, puzzle: Exclusion NG 3)”, the “apparent KD of MS2 coat protein” value reads like this: (input ligand: FMN 200 uM) 256 nM; under setting [1], 80.9 nM; (input ligand: none) 123 nM.
With “CCGGAAUAACAGGAUAUAGGAGUCGAUAGACACCUAGAAGGGUUGACAUGAGGAUCACCCAUGUGUCCUACCGG [Fiskers Ex 6 - 81] (puzzle: Exclusion 6)”, the “apparent KD of MS2 coat protein” value reads like this: under setting [2], 756 nM; under setting [3], 728 nM; under setting [4], 595 nM.
As for “GAUUGAGAGCAGGAUAUCUUAGAAAUGUAUUAAAGAGAAGGGCUCACAUGAGGAUCACCCAUGUGGUCCUAGAU [JL Dibiri mod 16] (Eterna round: R96, puzzle: Exclusion 6)”, the “apparent KD of MS2 coat protein” value reads like this: (input ligand: FMN 200 uM) 306 nM; under setting [1], 22.8 nM; (input ligand: none) 26.3 nM.
Turning to “UAUUAACAUGUAGGAUAUCUGCACGAUUAGUGCAGAGAAGGACAUGAGGAUCACCCAUGUAGAUCAUAAUAAUUUAAUUUAAUU [ENG1/6-D1] (Eterna round: R96, puzzle: Exclusion NG 1)”, the “apparent KD of MS2 coat protein” value under setting [1] was determined as 106 nM.
In the case of “CGAUCCGUAGAGGAUAUAGGACGUCAUAGCGAUUUAGAAGGCUACACAUGAGGAUCACCCAUGUACAUUUCAUA [Eternabot (L1) Solution 60] (Eterna round: R97, puzzle: Exclusion 6)”, the “apparent KD of MS2 coat protein” value was 18.9 nM (input ligand: FMN 200 uM) and 18.1 nM (input ligand: none).
Turning to “UGUAGGUCUACCUUGGUGGAUCUGCAUUUUUGCAGGUGUACAUGAGGAUCACCCAUGUCCUCAUUUGCUCGUCUUAU [JL turnoff v2 99.31] (puzzle: Sensor v3, turn-off variant 2)”, the “apparent KD of MS2 coat protein” value was 467 nM under setting [2], 560 nM under setting [3] and 542 nM under setting [4].
With “CGCUAAGCUAUGCUCGUCAACAUGAGGAUCACCCAUGUGCACUACGGAAGGUACACAACGUACCAAAGACCUCAAAG [Eternabot (Original) Solution 27] (Eterna round: R97, puzzle: Sensor, turn-off variant 1)”, the “apparent KD of MS2 coat protein” value runs as follows: (input ligand: FMN 200 uM) 185 nM; (input ligand: none) 119 nM.
For “AAGAAAAGGAGAGGAUAUGCGAAAGGAAGUGUAGCAGAAGGCUUCGGGUAAGUCCACAUGAGGAUCACCCAUGUUAAUAAAAGA [PowerStrip EXNG 1.19] (Eterna round: R96, puzzle: Exclusion NG 1)”, the “apparent KD of MS2 coat protein” value reads like this: (input ligand: FMN 200 uM) 345 nM; under setting [1], 290 nM; (input ligand: none) 436 nM.
On to “ACAUGAAGAUAGGAUAUCCGCGAAAAUGGUCUAGGAGAAGGGUCUACAUGAGGAUCACCCAUGUAGCAGUGGAU [Eternabot (L1) Solution 79] (Eterna round: R97, puzzle: Exclusion 6)”, for which the “apparent KD of MS2 coat protein” value (input ligand: FMN 200 uM) stood at 14.7 nM and the “apparent KD of MS2 coat protein” value (input ligand: none) was 16.7 nM.
As for “UUCCUCUUUGUGAGGAUAUCGUCCGUUUUUUGUUACGAGAAGGCACAUGAGGAUCACCCAUGUUUUUUGUUUUU [JR_BMOE4_Sub076] (puzzle: Brourd's mod of Exclusion 4)”, the “apparent KD of MS2 coat protein” value under setting [3] is 21.4 nM.
Consider “ACUAGCGAAAUGCUCGUCUUAUUUUUGUAGAGGUUCUAAACAUGAGGAUCACCCAUGUAGUGGUUUUUGUGGAGGUA [JR_SV3TOV2_Sub071] (puzzle: Sensor v3, turn-off variant 2)”, for which the “apparent KD of MS2 coat protein” value by setting is: under setting [2], 222 nM; under setting [4], 349 nM.
For the sequence “GUUAAGUGAGGAUAUGGUGAGUAGUGCCAGAGCGCUGCUCACCAGAAGGCACAUGAGGAUCACCCAUGUAUAGC [Mat - Exclusion 4 - Mod of JL - D15] (puzzle: Exclusion 4)”, the “apparent KD of MS2 coat protein” value under setting [3] is 13 nM.
Turning to “GUGUAGAUAGGAUAUGCAUAGAGCUUACGAAAGUAGGCUCUACAUGAGGAUCACCCAUGUAGAAGGGUCUACAC [Dot plot directed A v15] (puzzle: Exclusion 2)”, under setting [3], the “apparent KD of MS2 coat protein” value worked out at 25 nM.
Take “GUAACAUGCUGGUGAUCAUACAUGAGGAUCACCCAUGUAACAAGCUUUUUGUUCGUCUUAAUUUAAUUGAUUACUAG [Stov1/8-B2] (Eterna round: R97, puzzle: Sensor, turn-off variant 1)”: the “apparent KD of MS2 coat protein” value reads like this: (input ligand: FMN 200 uM) 202 nM; (input ligand: none) 196 nM.
Take “AUUUAGUCAGGAUAUACAUGAGGAUCACCCAUGUAAACUUUUAGUUUAAUUUGAAUGUGUAGAAGGGACAUUUA [Ex3 #46] (Eterna round: R97, puzzle: Exclusion 3)”: the “apparent KD of MS2 coat protein” value (input ligand: FMN 200 uM) came out at 26 nM and the “apparent KD of MS2 coat protein” value (input ligand: none) amounted to 28 nM.
Taken in the same sequence, the figures for “CAGUACAGAGGAUAUACAUGAGGAUCACCCAUGUGUUCCAGCUAGGAGACUAGCAAGUGUAGAAGGCUGUACUG [Mat - Exclusion 3 - JL Mod - D8] (Eterna round: R97, puzzle: Exclusion 3)” were 592 nM and 405 nM.
“CUGAGUGGAGGAUAUACAUGAGGAUCACCCAUGUAAAGUAGCUUGCGUACAGGCAGAUGUAGAAGGUCAUUCGG [Mod of JL 12 - Jieux - Exclusion 3] (Eterna round: R97, puzzle: Exclusion 3)”: the “apparent KD of MS2 coat protein” value amounted to 28.2 nM (input ligand: FMN 200 uM) and 10.3 nM (input ligand: none).
Consider “AAGAUGCGGGUAGGAUAUGGGAAUUAAUAAAGACCAGAAGGACUGGUCACACAACAUGAGGAUCACCCAUGUGUGUGUAGUGAA [exng1 ex1] (Eterna round: R96, puzzle: Exclusion NG 1)”, for which, under setting [1], the “apparent KD of MS2 coat protein” value came to 9.2 nM.
The same measure, in the same setting: for “UAAGUUUUGGUAGGAUAUACUUUAAAUUUCUCUAUCCAUACAUGAGGAUCACCCAUGUUUACAUUGUAGAAGGACCUUUAUGUU [JR_ExcNG2_Sub057] (Eterna round: R96, puzzle: Exclusion NG 2)” the value was 30.2 nM.
On to “AGUUAUUCAGGAUAUGGUGUGUUAUACAUGAGGAUCACCCAUGUGGGUCCUGGUUUGGCCUCAGAAGGGAAUGUUA [salish99_ex5_r4_123] (Eterna round: R97, puzzle: Exclusion 5)”, for which the “apparent KD of MS2 coat protein” value by setting is: (input ligand: FMN 200 uM) 507 nM; (input ligand: none) 600 nM.
For “UUUAGUUUAGGAUAUGUAGAUUUUAACAUGAGGAUCACCCAUGUAGAUCCUGAAUUAACUACAGAAGGAAACAUUU [Mod of Brourd 13 - Jieux - Exclusion 5] (Eterna round: R97, puzzle: Exclusion 5)” the same measures were 514 nM and 123 nM.
Taken in the same sequence, the figures for “AGGUCAUUAGGAUAUGUCGAAUAUGACAUGAGGAUCACCCAUGUGGUAGGCAUGUCGUAGACAGAAGGAGUGUAAA [Laqureis] (Eterna round: R97, puzzle: Exclusion 5)” were 219 nM and 75.9 nM.
For the sequence “GGAAGACAUGAGGAUCACCCAUGUAAGGAUAUCGGAGGUAAGGGAGGAAGGAGAUAGGCGAGAAGGUACAGGUG [JR_Exclu1_Sub094] (puzzle: Exclusion 1)”, the “apparent KD of MS2 coat protein” value under setting [2] was 47.2 nM, the “apparent KD of MS2 coat protein” value under setting [3] is 35.5 nM and the “apparent KD of MS2 coat protein” value under setting [4] stood at 53 nM.
For “UUAUACGCUGAGGAUAUCUUCACUGAGAGGUGAAGAGAAGGCGGUACAUGAGGAUCACCCAUGUCUAUGGGCAG [Ex-6 Malc#20] (puzzle: Exclusion 6)” the same measures were 376 nM, 312 nM and 479 nM.
With “CCAACUCAGGAGGAUAUCUCCGCGAGUUCACGAAGAGAAGGCCUGACAUGAGGAUCACCCAUGUGUCCAUGAGG [Eternabot (Original) Solution 8] (Eterna round: R97, puzzle: Exclusion 6)”, the “apparent KD of MS2 coat protein” value was 106 nM (input ligand: FMN 200 uM) and 69.6 nM (input ligand: none).
For “GAGUUAGCGUGUGGAAUAUACAUGAGGAUCACCCAUGUUAGCUUAUAUAUUGCUCGUCUUAUAACAACACUUAACUG [Mod JX-Electric-eye4] (Eterna round: R97, puzzle: Sensor, turn-off variant 1)” the same measures were 42.7 nM and 45.8 nM.
As to “AGGUCCUUCUGGAGACAUGAGGAUCACCCAUGUCGAGUCAGCGAGGAUAUCGGUAAGACAUGUGAUGAGAAGGCGCAGACCGAU [Ex NG3 #43] (Eterna round: R96, puzzle: Exclusion NG 3)”, the “apparent KD of MS2 coat protein” value runs as follows: (input ligand: FMN 200 uM) 17.2 nM; under setting [1], 11.9 nM; (input ligand: none) 12.7 nM.
Take “AGUAGUAGUAUCCGUUCUUACAUGAGGAUCACCCAUGUUUCUAGACGUGCACGCGAUGCUCGUCAGACUACCAGAUG [salish99_TOv1_r3_054] (puzzle: Sensor v3, turn-off variant 1)”: the “apparent KD of MS2 coat protein” value was found to be 61.2 nM under setting [2], 72.3 nM under setting [3] and 68.9 nM under setting [4].
For “GCGAAAACAAGCAAGUGAAACAUGAGGAUCACCCAUGUCCUCAUUUGCUCGUCUUAUAAAAGCUAUCGAAAGAUAGC [Mat - Sensor v3 - turn-off var 1 - Eli Mod - D49] (puzzle: Sensor v3, turn-off variant 1)”, the “apparent KD of MS2 coat protein” value worked out at 9.41 nM under setting [2], 205 nM under setting [3] and 9.78 nM under setting [4].
